Here are results for 1 substance from patent publication US11111295.

In this assay the target is human claudin 18A2 (CLD18A2) (human). As to the kind of experiment: cell-based or functional assay.

Bounds are passed on as bounds.

human claudin 18A2 (CLD18A2) (human), sequence (chain, as listed by the source limits assumed, form in doubt): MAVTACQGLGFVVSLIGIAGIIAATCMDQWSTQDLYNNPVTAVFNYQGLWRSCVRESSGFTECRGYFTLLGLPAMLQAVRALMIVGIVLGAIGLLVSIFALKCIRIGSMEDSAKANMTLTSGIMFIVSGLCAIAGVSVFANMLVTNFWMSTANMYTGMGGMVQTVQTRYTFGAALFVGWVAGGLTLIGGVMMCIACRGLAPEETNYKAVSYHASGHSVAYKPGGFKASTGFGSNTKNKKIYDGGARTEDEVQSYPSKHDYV

For the substance hu8E5-28Z chimeric antigen receptor, the CAR-T cytotoxicity on AGS-A2 cells, effector-to-target ratio 3:1 was greater than 60% and the CAR-T cytotoxicity on BGC-823-A2 cells, effector-to-target ratio 3:1 was greater than 90%.
